# Results from patent US20180362632A1 (published 2018).
# Changes are numbered by the printed parent chain. Values joined by “and” are separate entries in the source; they are usually repeats but may differ in a detail not shown here. Equal values may be shown once.
# B1: Hu50C5-13 (antibody, V domains shown)
# VH: EVQLVQSGAEVKKPGSSVKVSCKASGYIFSPYSIHWVRQAPGQGLEWIGYINPSTGYIEYNQHFKDRVTITADKSTSTAYMELRSLRSEDTAVYYCARGGDYEGYFDYWGQGTTVTVSS
# VL: DIQMTQSPSSLSASVGDRVTITCRLNENIYSFLAWYQQKPGKAPKLLVYNAETLAEDVPSRFSGSGSGTDFTLTISSLQPEDFATYYCQQHYGTPYTFGGGTKVEIK
# B2: Hu50C5-1 (antibody, V domains shown)
# VH: B1 VH with Y27G, I28T, I48M
# VL: B1 VL with V48I, D57G
# B3: Hu50C5-6 (antibody, V domains shown)
# VH: B1 VH with I48M
# VL: B1 VL with V48I, D57G
# B4: Hu50C5-5 (antibody, V domains shown)
# VH: B1 VH with Y27G, I28T, I48M
# VL: B1 VL with A43S, D70Q
# B5: Hu50C5-2 (antibody, V domains shown)
# VH: B1 VH with Y27G, I28T, I48M
# VL: B1 VL with D57G
# B6: Hu50C5-4 (antibody, V domains shown)
# VH: B1 VH with Y27G, I28T, I48M
# VL: B1 VL with D70Q
# B7: Hu50C5-14 (antibody, V domains shown)
# VH: B1 VH
# VL: B1 VL with D70Q
# B8: Hu50C5-9 (antibody, V domains shown)
# VH: B1 VH with I48M
# VL: B1 VL with D70Q
# B9: 23F4 chimera (antibody, V domains shown)
# VH: QVQLQQSGPELVKPGTSMKISCKTSDYTLTSHYLHWVKQRPGQGLEWIGWIFPGDDKTKYNEKFKGKATLTSDKTSNTAYMQLSSLTSEESAVYFCARGTKYLNWNFDVWGTGTTVTVSS
# VL: DIVLTQPQKFLSTSVGDRVSVTCKANQNVGTTLAWYQQKPGQSPKALIYSASYRYSGVPDRFTGSGSGTDFTLTISNVQSEDLAEYFCHQYTTYPLTFGGGTKLEIK
# B10: Hu23F4-35 (antibody, V domains shown)
# VH: EVQLVQSGAEVKKPGASVKVSCKASGYTFTSHYLHWVRQAPGQGLEWIGWIFPGDDKTKYNEKFKGRATLTSDTSISTAYMELSRLRSDDTAVYYCARGTKYLNWNFDVWGQGTTVTVSS
# VL: DIQLTQSPSFLSASVGDRVTITCKANQNVGTTLAWYQQKPGKSPKALIYSASYRYSGVPDRFSGSGSGTDFTLTISSLQPEDFATYFCHQYTTYPLTFGGGTKVEIK
# B11: Hu23F4-30 (antibody, V domains shown)
# VH: B10 VH with I48M, A68V
# VL: B10 VL with S43A, F87Y
# B12: Hu23F4-31 (antibody, V domains shown)
# VH: B10 VH with I48M, A68V
# VL: B10 VL
# B13: Hu23F4-33 (antibody, V domains shown)
# VH: B10 VH
# VL: B10 VL with S43A, D60S, D70E, F87Y
# B14: Hu23F4-25 (antibody, V domains shown)
# VH: B10 VH with I48M, A68V, L70M
# VL: B10 VL with S43A, D60S, D70E, F87Y
# B15: Hu23F4-26 (antibody, V domains shown)
# VH: B10 VH with I48M, A68V, L70M
# VL: B10 VL with S43A, F87Y
# B16: Hu23F4-38 (antibody, V domains shown)
# VH: B10 VH with G26D, F29L
# VL: B10 VL with S43A, F87Y
# B17: Hu23F4-29 (antibody, V domains shown)
# VH: B10 VH with I48M, A68V
# VL: B10 VL with S43A, D60S, D70E, F87Y
# B18: Hu23F4-34 (antibody, V domains shown)
# VH: B10 VH
# VL: B10 VL with S43A, F87Y
# B19: Hu23F4-36 (antibody, V domains shown)
# VH: B10 VH with G26D, F29L
# VL: B10 VL with S43A, A46L, D60S, D70E, F87Y
# B20: Hu23F4-32 (antibody, V domains shown)
# VH: B10 VH
# VL: B10 VL with S43A, A46L, D60S, D70E, F87Y
# B21: Hu23F4-28 (antibody, V domains shown)
# VH: B10 VH with I48M, A68V
# VL: B10 VL with S43A, A46L, D60S, D70E, F87Y
# B22: Hu23F4-24 (antibody, V domains shown)
# VH: B10 VH with I48M, A68V, L70M
# VL: B10 VL with S43A, A46L, D60S, D70E, F87Y
# B23: Hu23F4-23 (antibody, V domains shown)
# VH: B10 VH with I48M, A68V, L70M, S72R
# VL: B10 VL
# B24: Hu23F4-27 (antibody, V domains shown)
# VH: B10 VH with I48M, A68V, L70M
# VL: B10 VL
# B25: Hu23F4-37 (antibody, V domains shown)
# VH: B10 VH with G26D, F29L
# VL: B10 VL with S43A, D60S, D70E, F87Y
# B26: Hu23F4-11 (antibody, V domains shown)
# VH: B10 VH with S17T, V20I, A24V, R38Q, Q43K, I48M, I76T, S77D, R85S, D89E
# VL: B10 VL with S43A, F87Y
# B27: Hu23F4-8 (antibody, V domains shown)
# VH: EVQLVQSGAEVKKPGATVKISCKVSGYTFTSHYLHWVQQAPGKGLEWMGWIFPGDDKTKYNEKFKGRVTITSDTSTDTAYMELSSLRSEDTAVYYCARGTKYLNWNFDVWGQGTTVTVSS
# VL: B10 VL
# B28: Hu23F4-20 (antibody, V domains shown)
# VH: B10 VH with I48M, A68V, L70M, S72R
# VL: B10 VL with S43A, A46L, D60S, D70E, F87Y
# B29: Hu23F4-6 (antibody, V domains shown)
# VH: B27 VH
# VL: B10 VL with S43A, D60S, D70E, F87Y
# B30: Hu23F4-13 (antibody, V domains shown)
# VH: B27 VH with M48I, V68A, I70L
# VL: B10 VL with S43A, A46L, D60S, D70E, F87Y
# B31: Hu23F4-2 (antibody, V domains shown)
# VH: B27 VH with S72A
# VL: B10 VL with S43A, D60S, D70E, F87Y
# Target: T1, recombinant human GM-CSF protein (human, UniProt P04141 18-144)
# Assay: ELISA
# T1 sequence (P04141 18-144): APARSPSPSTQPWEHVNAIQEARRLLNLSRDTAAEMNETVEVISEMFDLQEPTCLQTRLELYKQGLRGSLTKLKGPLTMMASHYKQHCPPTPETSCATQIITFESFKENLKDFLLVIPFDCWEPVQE
row,EC50,Binder
1,3.52 nM,B1
2,2.75 nM,B2
3,0.345 nM,B3
4,0.534 nM,B4
5,2.19 nM,B5
6,1.18 nM,B6
7,1.94 nM,B7
8,0.568 nM,B8

# Target: T1, recombinant human GM-CSF protein
# Assay: ELISA
# Remark: another data set of the same source
row,EC50,Binder
1,0.092 nM and 0.0881 nM,B9
2,0.0624 nM,B10
3,0.0411 nM,B11
4,0.0424 nM,B12
5,0.0954 nM,B13
6,0.0268 nM,B14
7,0.0348 nM,B15
8,0.136 nM,B16
9,0.0736 nM,B17
10,0.0977 nM,B18
11,0.0384 nM,B19
12,0.0873 nM,B20
13,0.101 nM,B21
14,0.0907 nM,B22
15,0.047 nM,B23
16,0.0384 nM,B24
17,0.127 nM,B25

# Target: T1, recombinant human GM-CSF protein
# Assay: ELISA
# Remark: another data set of the same source
row,EC50,Binder
1,0.081 nM and 0.0923 nM,B9
2,0.0871 nM,B26
3,0.0484 nM,B27
4,0.0993 nM,B28
5,0.0196 nM,B29
6,0.0852 nM,B30
7,0.158 nM,B31
